The record followed here is article doi:10.1101/2022.09.11.507491.

This assay deals with HA-CXCR4-RLuc3 (UniProt P61073). As to the kind of experiment: FRET or BRET. On the technique in general: In BRET a luciferase serves as donor, and the signal depends on an acceptor being close.
Sequence of UniProt P61073 (P61073 whole entry): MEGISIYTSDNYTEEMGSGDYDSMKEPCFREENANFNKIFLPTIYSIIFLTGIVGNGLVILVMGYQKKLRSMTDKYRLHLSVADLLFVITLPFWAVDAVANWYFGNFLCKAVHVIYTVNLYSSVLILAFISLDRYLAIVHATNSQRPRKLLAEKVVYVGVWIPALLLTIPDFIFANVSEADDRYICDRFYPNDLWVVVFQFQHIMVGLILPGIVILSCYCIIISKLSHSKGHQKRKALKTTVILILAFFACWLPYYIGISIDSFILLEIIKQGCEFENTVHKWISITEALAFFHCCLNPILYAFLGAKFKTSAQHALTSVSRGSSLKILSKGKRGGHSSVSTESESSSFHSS
For mVenus-miniGαs/i WT, the Kd of BRET acceptor saturation (x axis: acceptor gMFI) is 7.1.
The substance mVenus-mini-Gαs/i(Y320F) returned a Kd of BRET acceptor saturation (x axis: acceptor gMFI) of 13.4.
To mVenus-miniGαs/i(Y320E) belongs 16.7.
